The supplement of paper PMC9112550, “Optimization of the antimicrobial peptide Bac7 by deep mutational scanning” (BMC Biology, 2022)

Test system: Escherichia coli TOP10
Test: shrunken log2 fold change of peptide-encoding DNA abundance (4.5 h post-induction vs induction); higher = less antimicrobial activity (less host growth inhibition)
Settings: time post-induction: 4.5 h; library: site-saturation at positions 5, 18, 19, 20
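Note: peptides expressed intracellularly from a pBAD plasmid library in pooled LB shake-flask culture, induced with 0.3% L-arabinose, DNA abundance read by NGS, three biological replicates, DESeq2 with apeglm shrinkage.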

Sequence	shrunken log2 fold change
RRIRGRPPRLPRPRPRPSVAPRP	1.37
RRIRGRPPRLPRPRPRPSWNPRP	0.285
RRIRGRPPRLPRPRPRPSYSPRP	-0.0047
RRIRGRPPRLPRPRPRPSYVPRP	0.112
RRIRGRPPRLPRPRPRPTAEPRP	3.04
RRIRGRPPRLPRPRPRPTCMPRP	0.879
RRIRGRPPRLPRPRPRPTDDPRP	1.01
RRIRGRPPRLPRPRPRPTGEPRP	0.0778
RRIRGRPPRLPRPRPRPTGIPRP	-0.0412
RRIRGRPPRLPRPRPRPTGNPRP	0.452
RRIRGRPPRLPRPRPRPTHSPRP	0.587
RRIRGRPPRLPRPRPRPTIGPRP	0.589
RRIRGRPPRLPRPRPRPTKEPRP	0.439
RRIRGRPPRLPRPRPRPTKMPRP	0.521
RRIRGRPPRLPRPRPRPTNDPRP	0.564
RRIRGRPPRLPRPRPRPTPRPRP	1.16
RRIRGRPPRLPRPRPRPTRFPRP	0.19
RRIRGRPPRLPRPRPRPTRRPRP	0.663
RRIRGRPPRLPRPRPRPTVVPRP	0.41
RRIRGRPPRLPRPRPRPVADPRP	1.34
RRIRGRPPRLPRPRPRPVAHPRP	0.548
RRIRGRPPRLPRPRPRPVAMPRP	1.02
RRIRGRPPRLPRPRPRPVCAPRP	1.06
RRIRGRPPRLPRPRPRPVCCPRP	0.957
RRIRGRPPRLPRPRPRPVCYPRP	0.833

Sequence	shrunken log2 fold change
RRIRGRPPRLPRPRPRPVDCPRP	0.496
RRIRGRPPRLPRPRPRPVHWPRP	0.601
RRIRGRPPRLPRPRPRPVIFPRP	0.598
RRIRGRPPRLPRPRPRPVKDPRP	0.68
RRIRGRPPRLPRPRPRPVKHPRP	0.168
RRIRGRPPRLPRPRPRPVKTPRP	0.0324
RRIRGRPPRLPRPRPRPVLDPRP	0.419
RRIRGRPPRLPRPRPRPVMAPRP	0.745
RRIRGRPPRLPRPRPRPVMHPRP	0.575
RRIRGRPPRLPRPRPRPVMMPRP	0.0154
RRIRGRPPRLPRPRPRPVNVPRP	0.0488
RRIRGRPPRLPRPRPRPVRPPRP	0.994
RRIRGRPPRLPRPRPRPVSQPRP	0.795
RRIRGRPPRLPRPRPRPVVSPRP	0.62
RRIRGRPPRLPRPRPRPVYRPRP	0.15
RRIRGRPPRLPRPRPRPWAHPRP	0.0122
RRIRGRPPRLPRPRPRPWASPRP	-0.00862
RRIRGRPPRLPRPRPRPWCRPRP	0.195
RRIRGRPPRLPRPRPRPWDQPRP	0.432
RRIRGRPPRLPRPRPRPWHNPRP	-0.145
RRIRGRPPRLPRPRPRPWIHPRP	0.0779
RRIRGRPPRLPRPRPRPWKAPRP	0.0375
RRIRGRPPRLPRPRPRPWNAPRP	0.109
RRIRGRPPRLPRPRPRPWNIPRP	-0.409
RRIRGRPPRLPRPRPRPWNQPRP	-0.139

Sequence	shrunken log2 fold change
RRIRGRPPRLPRPRPRPWPFPRP	0.745
RRIRGRPPRLPRPRPRPWPRPRP	0.37
RRIRGRPPRLPRPRPRPWQFPRP	0.0819
RRIRGRPPRLPRPRPRPWQTPRP	0.174
RRIRGRPPRLPRPRPRPWRNPRP	0.297
RRIRGRPPRLPRPRPRPWTRPRP	-0.0814
RRIRGRPPRLPRPRPRPWVNPRP	0.0175
RRIRGRPPRLPRPRPRPYARPRP	0.416
RRIRGRPPRLPRPRPRPYCSPRP	-0.0241
RRIRGRPPRLPRPRPRPYDCPRP	-0.147
RRIRGRPPRLPRPRPRPYDNPRP	-0.183
RRIRGRPPRLPRPRPRPYELPRP	-0.036
RRIRGRPPRLPRPRPRPYEYPRP	0.127
RRIRGRPPRLPRPRPRPYFGPRP	-0.335
RRIRGRPPRLPRPRPRPYHPPRP	-0.559
RRIRGRPPRLPRPRPRPYKIPRP	-0.618
RRIRGRPPRLPRPRPRPYKPPRP	-0.571
RRIRGRPPRLPRPRPRPYKQPRP	0.025
RRIRGRPPRLPRPRPRPYLQPRP	-0.182
RRIRGRPPRLPRPRPRPYLSPRP	-0.0512
RRIRGRPPRLPRPRPRPYNLPRP	-0.487
RRIRGRPPRLPRPRPRPYNPPRP	-0.504
RRIRGRPPRLPRPRPRPYPYPRP	-0.095
RRIRGRPPRLPRPRPRPYQLPRP	0.147
RRIRGRPPRLPRPRPRPYQNPRP	-0.0136

Sequence	shrunken log2 fold change
RRIRGRPPRLPRPRPRPYRFPRP	0.0893
RRIRGRPPRLPRPRPRPYTRPRP	-0.0484
RRIRGRPPRLPRPRPRPYVPPRP	-0.529
RRIRGRPPRLPRPRPRPYVWPRP	0.131
RRIRGRPPRLPRPRPRPYYEPRP	0.0278
RRIRGRPPRLPRPRPRPYYFPRP	0.0211
RRIRHRPPRLPRPRPRPAAIPRP	0.0732
RRIRHRPPRLPRPRPRPAAPPRP	0.093
RRIRHRPPRLPRPRPRPACKPRP	-0.164
RRIRHRPPRLPRPRPRPACWPRP	0.375
RRIRHRPPRLPRPRPRPAEFPRP	0.108
RRIRHRPPRLPRPRPRPAFLPRP	0.305
RRIRHRPPRLPRPRPRPAFQPRP	-0.0477
RRIRHRPPRLPRPRPRPAIWPRP	0.137
RRIRHRPPRLPRPRPRPAKQPRP	0.307
RRIRHRPPRLPRPRPRPALCPRP	0.174
RRIRHRPPRLPRPRPRPALRPRP	0.269
RRIRHRPPRLPRPRPRPANKPRP	-0.291
RRIRHRPPRLPRPRPRPANTPRP	-0.0313
RRIRHRPPRLPRPRPRPAPGPRP	0.536
RRIRHRPPRLPRPRPRPAPWPRP	0.0941
RRIRHRPPRLPRPRPRPAREPRP	0.256
RRIRHRPPRLPRPRPRPARWPRP	0.386
RRIRHRPPRLPRPRPRPASFPRP	-0.215
RRIRHRPPRLPRPRPRPATGPRP	-0.276

Sequence	shrunken log2 fold change
RRIRHRPPRLPRPRPRPATHPRP	-0.105
RRIRHRPPRLPRPRPRPATRPRP	0.0209
RRIRHRPPRLPRPRPRPAVAPRP	0.117
RRIRHRPPRLPRPRPRPAVLPRP	0.0684
RRIRHRPPRLPRPRPRPAVYPRP	-0.0534
RRIRHRPPRLPRPRPRPAWDPRP	-0.0216
RRIRHRPPRLPRPRPRPAWRPRP	0.654
RRIRHRPPRLPRPRPRPAWYPRP	-0.0318
RRIRHRPPRLPRPRPRPCCYPRP	-0.496
RRIRHRPPRLPRPRPRPCFPPRP	-0.517
RRIRHRPPRLPRPRPRPCHTPRP	-0.0375
RRIRHRPPRLPRPRPRPCICPRP	-0.347
RRIRHRPPRLPRPRPRPCIWPRP	-0.121
RRIRHRPPRLPRPRPRPCKCPRP	-0.174
RRIRHRPPRLPRPRPRPCKDPRP	-0.332
RRIRHRPPRLPRPRPRPCLSPRP	0.0289
RRIRHRPPRLPRPRPRPCMIPRP	-0.277
RRIRHRPPRLPRPRPRPCNEPRP	-0.00194
RRIRHRPPRLPRPRPRPCNTPRP	-0.416
RRIRHRPPRLPRPRPRPCPCPRP	-0.114
RRIRHRPPRLPRPRPRPCQLPRP	-0.0748
RRIRHRPPRLPRPRPRPCSFPRP	-0.309
RRIRHRPPRLPRPRPRPCSLPRP	-0.115
RRIRHRPPRLPRPRPRPCTIPRP	-0.0935
RRIRHRPPRLPRPRPRPCWIPRP	-0.00991

Sequence	shrunken log2 fold change
RRIRHRPPRLPRPRPRPDDPPRP	-0.0026
RRIRHRPPRLPRPRPRPDEKPRP	-0.00141
RRIRHRPPRLPRPRPRPDELPRP	-0.000777
RRIRHRPPRLPRPRPRPDEYPRP	-0.00149
RRIRHRPPRLPRPRPRPDGFPRP	-0.015
RRIRHRPPRLPRPRPRPDHGPRP	-0.115
RRIRHRPPRLPRPRPRPDHMPRP	0.00372
RRIRHRPPRLPRPRPRPDIPPRP	-0.193
RRIRHRPPRLPRPRPRPDLRPRP	0.0039
RRIRHRPPRLPRPRPRPDLVPRP	-0.104
RRIRHRPPRLPRPRPRPDPMPRP	0.0718
RRIRHRPPRLPRPRPRPDPWPRP	0.0282
RRIRHRPPRLPRPRPRPDQHPRP	-0.00237
RRIRHRPPRLPRPRPRPDRWPRP	0.255
RRIRHRPPRLPRPRPRPDTMPRP	0.031
RRIRHRPPRLPRPRPRPDTVPRP	0.028
RRIRHRPPRLPRPRPRPDVFPRP	-0.37
RRIRHRPPRLPRPRPRPDWCPRP	-0.00101
RRIRHRPPRLPRPRPRPDWNPRP	-0.207
RRIRHRPPRLPRPRPRPEAWPRP	0.0548
RRIRHRPPRLPRPRPRPEDSPRP	0.0648
RRIRHRPPRLPRPRPRPEDVPRP	-0.00992
RRIRHRPPRLPRPRPRPEFYPRP	-0.0662
RRIRHRPPRLPRPRPRPEGVPRP	0.0659
RRIRHRPPRLPRPRPRPEICPRP	-0.00961
